Experimental findings from patent publication US20260167718A1 (Merck Sharp & Dohme, published 2026) are described below.

The Kd is the free concentration of one partner at which half of the binding sites on the other are occupied at equilibrium, for simple one-to-one binding.

Assay [1] has as its target T1, Human ILT3 (LILRB4) extracellular domain with C-terminal His Tag (human, UniProt Q8NHJ6 22-259).
T1 construct: the claims count residues 1-238 as the extracellular domain; also called human ILT3-His; ILT3_H
Description: SPR (Biacore), human ILT3-His. Here is the method:
(§1) The binding kinetics and affinities of anti-human ILT3 clones for human or rhesus ILT3-His tagged recombinant protein were measured by surface plasmon resonance using a Biacore™ T200 system (GE Healthcare, Piscataway, NJ). HBS-EP+ buffer (BR-1006-69) was used as the running buffer. Anti-human Fc antibody (Human Fc Capture Kit, BR100839, GE Healthcare) was immobilized via amine coupling chemistry in all four flow cells on a Series S CM5 sensor chip (BR100530 or 29149603, GE Healthcare) following manufacturer instructions. Flow cell 1 was used as reference for background subtraction and was not used for capture. […] Following each injection cycle, all four flow cells were regenerated using 30 second injection of 3M MgCl₂ solution at a flow rate of 10 μL/minute. Reference subtracted sensorgrams were fit to a 1:1 Langmuir Binding Model in the Biacore™ T200 Evaluation Software (Version 2.0) to determine the association (ka) and dissociation (kd) rate constants and the equilibrium dissociation constant KD (=kd/ka).
On the technique in general: In SPR one partner is held on a chip, and binding of the other changes the refractive index at the surface.

For assay [2], the target named is T2, rhesus ILT3-His tagged recombinant protein (rhesus monkey (Macaca mulatta)).
T2 construct: also called ILT3_MM; not shown: His tag
T2 chain: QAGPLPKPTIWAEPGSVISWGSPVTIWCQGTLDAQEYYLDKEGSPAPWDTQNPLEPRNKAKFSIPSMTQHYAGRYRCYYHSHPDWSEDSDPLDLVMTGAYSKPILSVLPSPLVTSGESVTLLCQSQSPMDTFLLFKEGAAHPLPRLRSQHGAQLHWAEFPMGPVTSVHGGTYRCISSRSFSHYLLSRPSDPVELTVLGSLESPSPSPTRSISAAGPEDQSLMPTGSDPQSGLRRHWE
Description: SPR (Biacore), rhesus ILT3-His. Here is the method: as §1

B1: Humanized anti-ILT3 mAb (52B8 VH1 M64V W101Y/VL5 N34D) IgG4 S228P/Kappa (antibody, V domains shown)
VH: EVQLVESGGGLVQPGGSLRLSCAASGFTFSNYGMSWVRQAPGKGLEWVATISGGGDYTNYPDSVRGRFTISRDNAKNSLYLQMNSLRAEDTAVYYCGRRLYFRSLYYAMDYWGQGTLVTVSS
VL: DIQLTQSPSSLSASVGDRVTITCRASEKVDSFGDSFMHWYQQKPGKAPKLLIYLTSNLDSGVPSRFSGSGSGTDFTLTISSLQPEDFATYYCQQNNEDPYTFGQGTKLEIKR
notes: also called mAb 58
As to B1, the binding result in assay [1] and in assay [2] was “no binding (tested: ILT3-His injected up to 20 nM)” each time.

B2: Humanized anti-ILT3 mAb (52B8 VH1/VL3) IgG4 S228P/Kappa (antibody, V domains shown)
VH: EVQLVESGGGLVQPGGSLRLSCAASGFTFSNYGMSWVRQAPGKGLEWVATISGGGDYTNYPDSMRGRFTISRDNAKNSLYLQMNSLRAEDTAVYYCGRRLWFRSLYYAMDYWGQGTLVTVSS
VL: EIVLTQSPATLSLSPGERATLSCRASEKVDSFGNSFMHWYQQKPGQAPRLLIYLTSNLDSGVPARFSGSGSRTDFTLTISSLEPEDFAVYYCQQNNEDPYTFGQGTKLEIKR
notes: also called mAb 3
As to B2, the Kd in assay [1] amounted to 1.1 nM; in assay [2], 26 nM.

B3: Humanized anti-ILT3 mAb (52B8 VH2 M64L/VL4) IgG4 S228P/Kappa (antibody, V domains shown)
VH: EVQLVESGGGLVQPGGSLRLSCAASGFTFSNYGMSWVRQAPGKGLEWVATISGGGDYTNYPDSLRGRFTISRDNAKNSLYLQMNSLKAEDTAVYYCGRRLWFRSLYYAMDYWGQGTLVTVSS
VL: EIVLTQSPATLSLSPGERATLSCRASEKVDSFGNSFMHWYQQKPGQAPRLLIYLTSNLDSGIPARFSGSGSGTDFTLTISSLEPEDFAVYYCQQNNEDPYTFGQGTKLEIKR
notes: also called mAb 24
In the case of B3, the Kd in assay [1] was determined as 1.2 nM; in assay [2] it was 27 nM.

B4: Humanized anti-ILT3 mAb (52B8 VH1 M64V W101Y/VL5 S35N) IgG4 S228P/Kappa (antibody, V domains shown)
VH: EVQLVESGGGLVQPGGSLRLSCAASGFTFSNYGMSWVRQAPGKGLEWVATISGGGDYTNYPDSVRGRFTISRDNAKNSLYLQMNSLRAEDTAVYYCGRRLYFRSLYYAMDYWGQGTLVTVSS
VL: DIQLTQSPSSLSASVGDRVTITCRASEKVDSFGNNFMHWYQQKPGKAPKLLIYLTSNLDSGVPSRFSGSGSGTDFTLTISSLQPEDFATYYCQQNNEDPYTFGQGTKLEIKR
notes: also called mAb 56
Regarding B4, the binding result in assay [1] and in assay [2] was “no binding (tested: ILT3-His injected up to 20 nM)” throughout.

B5: Humanized anti-ILT3 mAb (52B8 VH1 M64V W101Y/VL5 S35A) IgG4 S228P/Kappa (antibody, V domains shown)
VH: EVQLVESGGGLVQPGGSLRLSCAASGFTFSNYGMSWVRQAPGKGLEWVATISGGGDYTNYPDSVRGRFTISRDNAKNSLYLQMNSLRAEDTAVYYCGRRLYFRSLYYAMDYWGQGTLVTVSS
VL: DIQLTQSPSSLSASVGDRVTITCRASEKVDSFGNAFMHWYQQKPGKAPKLLIYLTSNLDSGVPSRFSGSGSGTDFTLTISSLQPEDFATYYCQQNNEDPYTFGQGTKLEIKR
notes: also called mAb 55
On to B5, for which the binding result in assay [1] and in assay [2] was “no binding (tested: ILT3-His injected up to 20 nM)” in each case.

B6: Humanized anti-ILT3 mAb (52B8 VH1/VL4) IgG4 S228P/Kappa (antibody, V domains shown)
VH: EVQLVESGGGLVQPGGSLRLSCAASGFTFSNYGMSWVRQAPGKGLEWVATISGGGDYTNYPDSMRGRFTISRDNAKNSLYLQMNSLRAEDTAVYYCGRRLWFRSLYYAMDYWGQGTLVTVSS
VL: EIVLTQSPATLSLSPGERATLSCRASEKVDSFGNSFMHWYQQKPGQAPRLLIYLTSNLDSGIPARFSGSGSGTDFTLTISSLEPEDFAVYYCQQNNEDPYTFGQGTKLEIKR
notes: also called mAb 4
Consider B6, for which the dissociation constant Kd in assay [1] is 1.4 nM; in assay [2] it was 29 nM.

B7: Humanized anti-ILT3 mAb (52B8 VH1 M64L/VL3) IgG4 S228P/Kappa (antibody, V domains shown)
VH: EVQLVESGGGLVQPGGSLRLSCAASGFTFSNYGMSWVRQAPGKGLEWVATISGGGDYTNYPDSLRGRFTISRDNAKNSLYLQMNSLRAEDTAVYYCGRRLWFRSLYYAMDYWGQGTLVTVSS
VL: EIVLTQSPATLSLSPGERATLSCRASEKVDSFGNSFMHWYQQKPGQAPRLLIYLTSNLDSGVPARFSGSGSRTDFTLTISSLEPEDFAVYYCQQNNEDPYTFGQGTKLEIKR
notes: also called mAb 19
As to B7, the figures for the Kd in assay [1] and in assay [2] were 0.99 nM and 26 nM, respectively.

B8: Humanized anti-ILT3 mAb (52B8 VH1 M64V/VL3) IgG4 S228P/Kappa (antibody, V domains shown)
VH: EVQLVESGGGLVQPGGSLRLSCAASGFTFSNYGMSWVRQAPGKGLEWVATISGGGDYTNYPDSVRGRFTISRDNAKNSLYLQMNSLRAEDTAVYYCGRRLWFRSLYYAMDYWGQGTLVTVSS
VL: EIVLTQSPATLSLSPGERATLSCRASEKVDSFGNSFMHWYQQKPGQAPRLLIYLTSNLDSGVPARFSGSGSRTDFTLTISSLEPEDFAVYYCQQNNEDPYTFGQGTKLEIKR
notes: also called mAb 11
Take B8: the Kd in assay [1] worked out at 1.1 nM; in assay [2], 27 nM.

B9: Humanized anti-ILT3 mAb (52B8 VH2 M64V/VL3) IgG4 S228P/Kappa (antibody, V domains shown)
VH: EVQLVESGGGLVQPGGSLRLSCAASGFTFSNYGMSWVRQAPGKGLEWVATISGGGDYTNYPDSVRGRFTISRDNAKNSLYLQMNSLKAEDTAVYYCGRRLWFRSLYYAMDYWGQGTLVTVSS
VL: EIVLTQSPATLSLSPGERATLSCRASEKVDSFGNSFMHWYQQKPGQAPRLLIYLTSNLDSGVPARFSGSGSRTDFTLTISSLEPEDFAVYYCQQNNEDPYTFGQGTKLEIKR
notes: also called mAb 15
On to B9, for which the figures for the Kd in assay [1] and in assay [2] were 1 nM and 26 nM, respectively.

B10: Humanized anti-ILT3 mAb (52B8 VH1 M64V/VL5 N34D) IgG4 S228P/Kappa (antibody, V domains shown)
VH: EVQLVESGGGLVQPGGSLRLSCAASGFTFSNYGMSWVRQAPGKGLEWVATISGGGDYTNYPDSVRGRFTISRDNAKNSLYLQMNSLRAEDTAVYYCGRRLWFRSLYYAMDYWGQGTLVTVSS
VL: DIQLTQSPSSLSASVGDRVTITCRASEKVDSFGDSFMHWYQQKPGKAPKLLIYLTSNLDSGVPSRFSGSGSGTDFTLTISSLQPEDFATYYCQQNNEDPYTFGQGTKLEIKR
notes: also called mAb 47
Take B10: the values for the Kd in assay [1] and in assay [2] were 3.8 nM and 115 nM, respectively.

B11: Humanized anti-ILT3 mAb (52B8 VH1 M64V W101Y/VL5 N34Q) IgG4 S228P/Kappa (antibody, V domains shown)
VH: EVQLVESGGGLVQPGGSLRLSCAASGFTFSNYGMSWVRQAPGKGLEWVATISGGGDYTNYPDSVRGRFTISRDNAKNSLYLQMNSLRAEDTAVYYCGRRLYFRSLYYAMDYWGQGTLVTVSS
VL: DIQLTQSPSSLSASVGDRVTITCRASEKVDSFGQSFMHWYQQKPGKAPKLLIYLTSNLDSGVPSRFSGSGSGTDFTLTISSLQPEDFATYYCQQNNEDPYTFGQGTKLEIKR
notes: also called mAb 57
Turning to B11, the binding result in assay [1] and in assay [2] was “no binding (tested: ILT3-His injected up to 20 nM)” each time.

B12: Humanized anti-ILT3 mAb (52B8 VH1 M64V/VL5 S35A) IgG4 S228P/Kappa (antibody, V domains shown)
VH: EVQLVESGGGLVQPGGSLRLSCAASGFTFSNYGMSWVRQAPGKGLEWVATISGGGDYTNYPDSVRGRFTISRDNAKNSLYLQMNSLRAEDTAVYYCGRRLWFRSLYYAMDYWGQGTLVTVSS
VL: DIQLTQSPSSLSASVGDRVTITCRASEKVDSFGNAFMHWYQQKPGKAPKLLIYLTSNLDSGVPSRFSGSGSGTDFTLTISSLQPEDFATYYCQQNNEDPYTFGQGTKLEIKR
notes: also called mAb 44
In the case of B12, the Kd is 2.6 nM in assay [1] and 34 nM in assay [2].

B13: Humanized anti-ILT3 mAb (52B8 VH1 M64L/VL4) IgG4 S228P/Kappa (antibody, V domains shown)
VH: EVQLVESGGGLVQPGGSLRLSCAASGFTFSNYGMSWVRQAPGKGLEWVATISGGGDYTNYPDSLRGRFTISRDNAKNSLYLQMNSLRAEDTAVYYCGRRLWFRSLYYAMDYWGQGTLVTVSS
VL: EIVLTQSPATLSLSPGERATLSCRASEKVDSFGNSFMHWYQQKPGQAPRLLIYLTSNLDSGIPARFSGSGSGTDFTLTISSLEPEDFAVYYCQQNNEDPYTFGQGTKLEIKR
notes: also called mAb 20
B13: the Kd in assay [1] was determined as 1.3 nM; in assay [2], 29 nM.

B14: Humanized anti-ILT3 mAb (52B8 VH1 M64V/VL5 S35N) IgG4 S228P/Kappa (antibody, V domains shown)
VH: EVQLVESGGGLVQPGGSLRLSCAASGFTFSNYGMSWVRQAPGKGLEWVATISGGGDYTNYPDSVRGRFTISRDNAKNSLYLQMNSLRAEDTAVYYCGRRLWFRSLYYAMDYWGQGTLVTVSS
VL: DIQLTQSPSSLSASVGDRVTITCRASEKVDSFGNNFMHWYQQKPGKAPKLLIYLTSNLDSGVPSRFSGSGSGTDFTLTISSLQPEDFATYYCQQNNEDPYTFGQGTKLEIKR
notes: also called mAb 45
The molecule B14 gave a Kd in assay [1] of 4.7 nM. Besides, the binding result in assay [2] is “no binding (tested: ILT3-His injected up to 20 nM)”.

B15: Humanized anti-ILT3 mAb (52B8 VH1 M64V/VL4) IgG4 S228P/Kappa (antibody, V domains shown)
VH: EVQLVESGGGLVQPGGSLRLSCAASGFTFSNYGMSWVRQAPGKGLEWVATISGGGDYTNYPDSVRGRFTISRDNAKNSLYLQMNSLRAEDTAVYYCGRRLWFRSLYYAMDYWGQGTLVTVSS
VL: EIVLTQSPATLSLSPGERATLSCRASEKVDSFGNSFMHWYQQKPGQAPRLLIYLTSNLDSGIPARFSGSGSGTDFTLTISSLEPEDFAVYYCQQNNEDPYTFGQGTKLEIKR
notes: also called mAb 12
Regarding B15, the Kd in assay [1] is 1.5 nM; in assay [2] it was 29 nM.

B16: Humanized anti-ILT3 mAb (52B8 VH2 M64L/VL3) IgG4 S228P/Kappa (antibody, V domains shown)
VH: EVQLVESGGGLVQPGGSLRLSCAASGFTFSNYGMSWVRQAPGKGLEWVATISGGGDYTNYPDSLRGRFTISRDNAKNSLYLQMNSLKAEDTAVYYCGRRLWFRSLYYAMDYWGQGTLVTVSS
VL: EIVLTQSPATLSLSPGERATLSCRASEKVDSFGNSFMHWYQQKPGQAPRLLIYLTSNLDSGVPARFSGSGSRTDFTLTISSLEPEDFAVYYCQQNNEDPYTFGQGTKLEIKR
notes: also called mAb 23
As for B16, the Kd in assay [1] stood at 0.96 nM; in assay [2], 24 nM.
